The data set deals with His-Cmr (Mycobacterium tuberculosis H37Rv, UniProt P9WMH5 1-244). The experiment in a line: EMSA. For orientation: In EMSA bound probe runs differently from free probe, usually more slowly.
Sequence of His-Cmr (P9WMH5 whole entry): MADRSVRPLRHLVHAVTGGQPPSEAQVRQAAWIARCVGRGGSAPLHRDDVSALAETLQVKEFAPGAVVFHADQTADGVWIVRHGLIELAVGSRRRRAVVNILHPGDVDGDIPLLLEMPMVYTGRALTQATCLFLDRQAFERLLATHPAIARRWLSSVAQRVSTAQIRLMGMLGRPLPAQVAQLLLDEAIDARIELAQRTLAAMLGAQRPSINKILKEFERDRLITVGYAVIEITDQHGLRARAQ

B1: 1C1 40 bp overlap (dsDNA)
DNA 1: GCGTGGTTCAGCTTGTCACCGGTGACACTGTGTTGGCTTC
DNA 2: GAAGCCAACACAGTGTCACCGGTGACAAGCTGAACCACGC
On to B1, for which the binding result was “binds”.

The values are drawn from paper PMC4705688.
